A value given as a limit tells only on which side of the number the result lay.

This is an account of results in patent US20250179196A1 (Janssen / Centocor, published 2025).

Experiment [1] concerns the target T1, human IL-23R expressed on the cell surface of stably transfected iLite and HEK cell lines (human, UniProt Q5VWK5 24-629).
T1 construct: whole, on cells; Same receptor on two transfected cell lines; the cell line is named under assay; also called human IL-23R iLite cells; human IL-23R HEK cells
T1 sequence (looked up): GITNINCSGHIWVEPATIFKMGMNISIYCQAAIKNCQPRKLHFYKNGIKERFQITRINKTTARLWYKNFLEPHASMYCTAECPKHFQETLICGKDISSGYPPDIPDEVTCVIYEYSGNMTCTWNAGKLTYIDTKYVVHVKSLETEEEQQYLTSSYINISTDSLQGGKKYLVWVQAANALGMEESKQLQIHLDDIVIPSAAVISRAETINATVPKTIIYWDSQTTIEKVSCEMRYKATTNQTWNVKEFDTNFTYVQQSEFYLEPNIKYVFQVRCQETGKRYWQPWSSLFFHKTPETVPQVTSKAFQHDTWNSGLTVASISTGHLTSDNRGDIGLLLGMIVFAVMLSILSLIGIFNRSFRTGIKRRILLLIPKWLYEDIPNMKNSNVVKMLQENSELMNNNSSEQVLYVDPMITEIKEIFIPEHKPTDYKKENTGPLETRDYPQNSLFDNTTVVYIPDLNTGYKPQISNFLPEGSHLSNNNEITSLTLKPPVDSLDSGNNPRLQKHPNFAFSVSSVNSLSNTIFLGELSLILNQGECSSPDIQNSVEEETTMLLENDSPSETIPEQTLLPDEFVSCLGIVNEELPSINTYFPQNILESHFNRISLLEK
As to the kind of experiment: flow cytometry on human IL-23R HEK cells, Expt D (8-point, 96well). The procedure:
HEK-IL-23R cell concentration response mAb binding (8-point, 96-well assay). […] HEK-IL-23R and HEK-parental cells (12.5 μL of each, 120000 cells total) were plated in 2× replicate on 96-well V-bottom plates (Corning, Cat #3357) into 37° C. warmed Assay medium containing serially diluted IL-23R mAbs to a final volume of 150 μL. IL-23R mAbs were allowed to bind to cells for 30 minutes, at 37° C. […] Cells were next washed twice in ice-cold stain buffer, then resuspended in a final volume of 30 μL with Sytox Green viability dye (ThermoFisher, Cat #S7020). Plates were kept on ice until run for analysis on the iQue. All washes were performed by centrifugation (800 rcf, 3 minutes) followed by flick decantation to remove supernatants. Cell-binding to HEK-IL-23R cells was measured with FlowJo, by gating for single, viable cells and determining the geometric mean fluorescence intensity (MFI) for the 647 detection antibody. Geometric mean fluorescence intensities were plotted over log mAb concentrations fitted with a dose response curve with variable slope using GraphPad Prism.

The target of experiment [2] is T1, human IL-23R expressed on the cell …. Kind of experiment: flow cytometry on human IL-23R HEK cells, Expt E (11-point, 384well). The procedure: HEK-IL-23R cell concentration response mAb binding (11-point, 384-well assay). […] IL-23R mAbs were allowed to bind to cells for 30 minutes, at 37° C. […] Cells were next washed twice in ice-cold stain buffer, then resuspended in a final volume of 10 μL with Sytox Green viability dye (ThermoFisher, Cat #S7020). Plates were kept on ice until run for analysis on the iQue. All washes were performed by centrifugation (800 rcf, 3 minutes) followed by automated aspiration to remove supernatants with plate washers. Cell-binding to HEK-IL-23R cells was measured with FlowJo, by gating for single, viable cells and determining the geometric mean fluorescence intensity (MFI) for the 647 detection antibody. Geometric mean fluorescence intensities were plotted over log mAb concentrations fitted with a dose response curve with variable slope using GraphPad Prism.

B1: I23RB269 (antibody, mouse IgG2a, kappa, V domains shown)
VH: QVQLVQSGAEVKKPGSSVKVSCKASGGTFSDASISWVRQAPGQGLEWMGTIIPISGNANYAQKFQGRVTITADESTSTAYMELSSLRSEDTAVYYCARDRYVWYYWDGYFDYWGQGTLVTVSS
VL: not shown
notes: phage display; human V, mouse IgG2a/kappa
For the molecule B1, the EC50 in experiment [1] stood at 0.6 nM; in experiment [2], 14.7 nM. Further, the “MFI (6.4 nM)” value in experiment [2] turned out to be 96800 MFI.

B2: I23RB94 (antibody, mouse IgG2a, kappa, V domains shown)
VH: DVQLQESGPELKKPGETVKISCKASGYTFTNYGMNWVRQAPGKSLKWMGWINTNTGEPAYAEEFKGRFAFSLETSASTAYLQINNLKNEDMATYFCARVRQTARATRGYFDVWGTGTTVTVSS
VL: DIVMTQSHKFMSTSVGDRVSITCKASQDVNTAVAWYQQKPGQSPKLLIYSAFYRYPGVPDRFTGSGSGTDFTFTINSVQAEDLAVYCCQQHYTSPLTFGDGTRLEIKR
notes: immunization; mouse IgG2a/kappa
Turning to B2, the EC50 in experiment [1] was determined as 0.1 nM; in experiment [2] it was 2.8 nM. In experiment [2], the “MFI (6.4 nM)” value turned out to be 364000 MFI.

B3: I23RB76 (antibody, mouse IgG2a, kappa, V domains shown)
VH: EVQLQQSGPELVKPGASVKMSCKASGYTFTDYYMNWMKQSHGKSLEWIGYISPKNGRTGYNQKFKGKATLTVDKSSTTAYMELRSLTSEDSAVYYCAKSNGYYALDYWGQGTTVTVSS
VL: DIVLTQSPATLCVTPGETVSLSCRASQNIYKNLHWFQQKSHRSPRLLIKYASDSISGIPSRFTGSGSGTDYTLSINSVKPEDEGIYYCLQGYSTPWTFGGGTKLEIKR
notes: as for B2
Molecule B3 gave an EC50 in experiment [1] of 0.4 nM. Also, in experiment [2], a half-maximal effect (EC50) was put at 11.9 nM and the “MFI (6.4 nM)” value is 322000 MFI.

B4: I23RB33 (antibody, mouse IgG2a, kappa, V domains shown)
VH: EVQLQQSGAELVKPGASVKLSCTASGFNIRDIYIHWVKQRPEQGLEWIGRIDPANGHSIYAAKFQGKATITADTSLNIAYMQLSSLTSGDTAVYYCARGSDNDYGRVLAYWGLGTSVTVSS
VL: DIVLTQSPAIMSASPGEKVTMTCRASSSVRSSYLHWYQQKSGASPKLWIYSTSNLASGVPARFSGSGSGTSYSLTITSVEAEDAATYYCQQYTGNPIFTFGSGTKLELKR
notes: as for B2
With B4, the EC50 in experiment [1] amounted to 0.2 nM. In experiment [2], a half-maximal response (EC50) required 5.6 nM and the “MFI (6.4 nM)” value turned out to be 306000 MFI.

B5: I23RB47 (antibody, mouse IgG2a, kappa, V domains shown)
VH: QVQLKESGPGLVAPSQSLSITCTVSGFSLTNYDIHWVRQSPGKGLEWLGVIWSDGRTDYKGAFISRLSISKDNSKSQVFFKMNSLQADDTAIYYCARNNYYRYGRNTMDYWGQGTSVTVSS
VL: DIVLTQSPASQSASLGESVTITCLASQTIGSWLAWYQQKPGKSPQLLIYAATRLADGVPSRFSGSGSGTKFSFKISSLQAEDFVFYYCHQLYSIPLTFGGGTKLEMKR
notes: as for B2
For the molecule B5, in experiment [1], the EC50 turned out to be 0.2 nM. For the same molecule, in experiment [2], a half-maximal effect (EC50) was put at 4.1 nM and the “MFI (6.4 nM)” value amounted to 364000 MFI.

B6: I23RB161 (antibody, mouse IgG2a, kappa, V domains shown)
VH: EFQLQQSGPELVKPGASVKISCKASVYAFSSSWMNWVKQRPGKGLEWIGRIYPGDGDTNYNGKFKGKATLTADKSSSTAYMQLSSLTSEDSAVYFCARRYDFGSAMDYWGQGTSVTVSS
VL: DIVMTQSPAILSASPGEKVTMTCRASSSVSYMHWYQQKPGSSPKPWIYATSDLASGAPARFSGSGSGTSYSLTISRVEAEDAATYYCQQWSSNPPTFGGGTKLEIKR
notes: as for B2
Turning to B6, in experiment [1], the EC50 came to 0.8 nM. In other words, the sub-nanomolar range.

B7: I23RB98 (antibody, mouse IgG2a, kappa, V domains shown)
VH: EFQLQQSGPELVKPGASVKMSCKASGYTFTNYYMHWVKQSHGKTIEWIGYIYPNSGDTSYNQKFKGKATLTVDKSSSTAYMELRSLTSEDSAVYTCARFGGFYDAMDYWGQGTTVTVSS
VL: DIVLTQSPAIMSASLGERVTMTCTASSSVSSSYLHWYQQKPGSSPKLWIYSTSNLASGVPARFSGSGSGTSYSLTISSMEAEDAATYYCHQYHRSPFTFGSGTKLEMKR
notes: as for B2
Molecule B7 yielded an EC50 in experiment [1] of 1.9 nM. Besides, in experiment [2], a half-maximal effect (EC50) was put at 28.7 nM and the “MFI (6.4 nM)” value turned out to be 59400 MFI.

B8: I23RB92 (antibody, mouse IgG2a, kappa, V domains shown)
VH: EVQLQQSGPEVVKPGASVKISCKASGYTFTDHTMDWVKQSHGKNLEWIGYIYPKSGGTGYNQKFKNKATLTVDKSSSTAYMEFHSLTSDDSAVYYCARWGLRRDGFVYWGQGTLVTVSA
VL: DIKMTQSPASLAVSLGQRATISCRASQSVSTSKYDYIHWYQQKSGQPPRLLIKYASNLESGVPARFSGSGSGTDFTLNIHPVEEEDTATYYCQHTWEIPYTFGSGTKLELKR
notes: as for B2
Molecule B8 had an EC50 in experiment [1] of 0.2 nM. In addition, in experiment [2], the EC50 is 4 nM and the “MFI (6.4 nM)” value came to 376000 MFI.

B9: I23RB65 (antibody, mouse IgG2a, kappa, V domains shown)
VH: EVQLQQSGPELVKPGASVKISCKASGYTFTDHTMDWVKQSHGKSLEWIGYIYPKSGNAAYSQKFKSEATLTVDKSSSTAYMEFHSLTSEDSAVYYCARWGLRRDGFTYWGQGTSVTVSS
VL: QIVLTQSPASLAVSLGQRATISCRASQSVSTSSYNYIHWYQQKPGQPPKLLIKYASNLESGVPARFSGSGSGTDFTLNIHPVEEDDTATYYCQHTWEIPYTFGSGTKLEIKR
notes: as for B2
As for B9, the EC50 came to 0.3 nM in experiment [1] and 4 nM in experiment [2]. Also, the “MFI (6.4 nM)” value in experiment [2] was determined as 275000 MFI.

B10: I23RB259 (antibody, mouse IgG2a, kappa, V domains shown)
VH: QVQLVQSGAEVKKPGSSVKVSCKASGGTFSSYGISWVRQAPGQGLEWMGWISPIFGTTNYAQKFQGRVTITADESTSTAYMELSSLRSEDTAVYYCARMMMQSLDYWGQGTLVTVSS
VL: not shown
notes: as for B1
In experiment [1], B10 came in with an EC50 of 29.7 nM. Moreover, in experiment [2], the EC50 was more than 50 nM and the “MFI (6.4 nM)” value is 30900 MFI.

B11: I23RB268 (antibody, mouse IgG2a, kappa, V domains shown)
VH: QVQLVQSGAEVKKPGSSVKVSCKASGGTFSSYYIHWVRQAPGQGLEWMGGIIPIFGYANYAQKFQGRVTITADESTSTAYMELSSLRSEDTAVYYCARDPGSYGSVYYRRSYYFDYWGQGTLVTVSS
VL: EIVLTQSPATLSLSPGERATLSCRASQSVSSYLAWYQQKPGQAPRLLIYDASNRATGIPARFSGSGSGTDFTLTISSLEPEDFAVYYCQQRSNWPLTFGQGTKVEIKR
notes: as for B1
In experiment [1], B11 returned an EC50 of 20.6 nM. In addition, in experiment [2], the EC50 amounted to 38.2 nM and the “MFI (6.4 nM)” value was 51900 MFI.

B12: I23RB270 (antibody, mouse IgG2a, kappa, V domains shown)
VH: QVQLVQSGAEVKKPGSSVKVSCKASGGTFDSYAISWVRQAPGQGLEWMGGIIPISGYANYAQKFQGRVTITADESTSTAYMELSSLRSEDTAVYYCARDLSGGYLGLRTLYYYYFDYWGQGTLVTVSS
VL: EIVLTQSPATLSLSPGERATLSCRASQSVSSYLAWYQQKPGQAPRLLIYDASNRATGIPARFSGSGSGTDFTLTISSLEPEDFAVYYCQQRSNWPLTFGQGTKVEIKR
notes: as for B1
Take B12: it took 0.5 nM to reach a half-maximal effect in experiment [1] (EC50). Also, in experiment [2], the EC50 came out at 7.2 nM and the “MFI (6.4 nM)” value was 243000 MFI.

B13: I23RB159 (antibody, mouse IgG2a, kappa, V domains shown)
VH: EVQLQQSGGGLVKPGGSLKLSCAASGFTFSDYGMAWVRQTPRKGPEWIAFISNLAYSVYYSDTVTGRFTISRENAKNTLYLEMSSLRSEDTAMYYCARHGDYRNYGFAYWGLGTTVTVSS
VL: DIVMTQTTSSLSASLGDRVTISCRASQDISNYLNWYQQKPDGTVKLLIYYTSRLHSGVPSRFSGSGSGTDYSLTISNLEQEDIATYFCQQGNTLPWTFGAGTKLELKR
notes: as for B2
In experiment [1], B13 showed an EC50 of more than 50 nM.

B14: I23RB32 (antibody, mouse IgG2a, kappa, V domains shown)
VH: EFQLQQSGPELVKPGASVKLSCKASGYTFTDYALHWVKQSPGQGLEWIGWIYPGGGNTYYNDKFKGKATMTADKSSSTAYMQLSSLTSEDSAVYFCARGRLRRDYPMDYWGQGTSVTVSS
VL: DIVMTQSPSSLTVTAGEKVTMSCKSSQSLLNSGNQKNYLTWYQQKPGQPPKLLIYWASTRESGVPDRFTGSGSGTDFTLTISSVQAEDLAVYYCQNDYTYPLTFGSGTKLEIKR
notes: as for B2
For B14, the EC50 came to 0.4 nM in experiment [1] and 5.1 nM in experiment [2]. Moreover, the “MFI (6.4 nM)” value in experiment [2] was determined as 292000 MFI.
